Results as given in article PMC10206803, “Structural insights into DNA recognition by the BEN domain of the transcription factor BANP”.

What was measured:
BANP BEN domain = molecular target: T1, BANP BEN domain (human, UniProt Q8N9N5 208-347); assay: ITC; ITC: 150 mM NaCl, 20 mM Tris-HCl pH 7.5, with or without DTT, 25 C, 50-90 uM protein in cell, 1 mM DNA in syringe; FP: 20 mM Tris-HCl pH 7.5, 150 mM NaCl, 1 mM; conditions: protein: recombinant, tags: His6-SUMO removed by TEV, blunt
T1 sequence: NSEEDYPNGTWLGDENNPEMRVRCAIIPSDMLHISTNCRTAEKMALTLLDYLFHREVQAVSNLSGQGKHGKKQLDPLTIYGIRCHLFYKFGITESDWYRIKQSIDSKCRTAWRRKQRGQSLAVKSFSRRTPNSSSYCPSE

BEND6 BEN domain = molecular target: T2, BEND6 BEN domain (human, UniProt Q5SZJ8 170-271); assay: fluorescence polarization; ITC: 150 mM NaCl, 20 mM Tris-HCl pH 7.5, with or without DTT, 25 C, 50-90 uM protein in cell, 1 mM DNA in syringe; FP: 20 mM Tris-HCl pH 7.5, 150 mM NaCl, 1 mM; conditions: protein: recombinant, tags: His6 (pET28-MHL) removed by TEV, label: 5' FAM
T2 sequence: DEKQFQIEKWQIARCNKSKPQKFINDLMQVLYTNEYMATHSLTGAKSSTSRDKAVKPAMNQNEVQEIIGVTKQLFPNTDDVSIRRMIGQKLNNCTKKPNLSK

B1: CTCgagcgAGAG (dsDNA)
DNA 1: CTCGAGCGAGAG
DNA 2: CTCTCGCTCGAG
Kd (BANP BEN domain): 14.1 ± 3 µM

B2: TCTCG to TCGCG (dsDNA)
DNA 1: GCAAATCGCGTA
DNA 2: TACGCGATTTGC
Kd (BANP BEN domain): 1.5 ± 0.2 µM

B3: PBM motif DNA AAATCTCG (dsDNA)
DNA 1: GCAAATCTCGTA
DNA 2: TACGAGATTTGC
Kd (BANP BEN domain): 1 ± 0.1 µM

B4: FAM methylated CGCG DNA (dsDNA)
DNA 1: CTCTCGCGAGAG
DNA 2: CTCTCGCGAGAG
modifications: 5-methylcytosine, position not given
Kd (BEND6 BEN domain): ~39 µM

B5: AAA and TCTCG both mutated (dsDNA)
DNA 1: GCCAGCAACATA
DNA 2: TATGTTGCTGGC
Kd (BANP BEN domain): 15.1 ± 1.9 µM

B6: AAA to ggg (dsDNA)
DNA 1: GCGGGTCTCGTA
DNA 2: TACGAGACCCGC
Kd (BANP BEN domain): 4.3 ± 0.3 µM

B7: CTCacgcgAGAG (dsDNA)
DNA 1: CTCACGCGAGAG
DNA 2: CTCTCGCGTGAG
Kd (BANP BEN domain): 14.3 ± 2.6 µM

B8: CGCG DNA (dsDNA)
DNA 1: CTCTCGCGAGAG
DNA 2: CTCTCGCGAGAG
Kd (BANP BEN domain; self-complementary): 8.4 ± 0.7 µM

B9: FAM-CGCG DNA (dsDNA)
DNA 1: CTCTCGCGAGAG
DNA 2: CTCTCGCGAGAG
Kd (BEND6 BEN domain; blunt, self-complementary): ~33 µM

B10: TCTCG to caaca (dsDNA)
DNA 1: GCAAACAACATA
DNA 2: TATGTTGTTTGC
Kd (BANP BEN domain): 5.4 ± 0.4 µM

B11: CGmCG DNA (dsDNA)
DNA 1: CTCTCGCGAGAG
DNA 2: CTCTCGCGAGAG
modifications: 5-methylcytosine at C7 of both strands
Kd (BANP BEN domain; self-complementary): 7.6 ± 0.3 µM

B12: CTCtggcgAGAG (dsDNA)
DNA 1: CTCTGGCGAGAG
DNA 2: CTCTCGCCAGAG
Kd (BANP BEN domain): 14.8 ± 2.3 µM

B13: AAA to cag (dsDNA)
DNA 1: GCCAGTCTCGTA
DNA 2: TACGAGACTGGC
Kd (BANP BEN domain): 2.9 ± 0.3 µM
